Measured values taken from publication doi:10.1101/2022.03.02.482667 (bioRxiv, 2022).
Where no end group is shown, it is not given here. Ahx = NCCCCCC(=O)O

Target: G3BP1 NTF2 (1-139) F15W (human, UniProt Q13283 1-139, F15W)
Assay: fluorescence polarisation

Sequence of G3BP1 NTF2 (1-139) F15W (Q13283 1-139 F15W): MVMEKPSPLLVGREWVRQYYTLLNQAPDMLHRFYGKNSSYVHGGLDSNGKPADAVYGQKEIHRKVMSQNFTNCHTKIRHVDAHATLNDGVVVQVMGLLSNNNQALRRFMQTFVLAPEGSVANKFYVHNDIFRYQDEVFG

Question: How did the Kd turn out when {fluorescein-Ahx}-YNFIQDSMLDFE [Caprin1-derived dodecamer reporter peptide F*-YNFIQDSMLDFE] was run?
Answer: The Kd was 9.3 µM.

Target: G3BP1 NTF2 domain (residues 1-139) WT (human, UniProt Q13283 1-139)
Assay: fluorescence polarisation

Sequence of G3BP1 NTF2 domain (residues 1-139) WT (Q13283 1-139): as the sequence (Q13283 1-139 F15W) above, with W15F counted along it

Question: For {fluorescein-Ahx}-YNFIQDSMLDFE [Caprin1-derived dodecamer reporter peptide F*-YNFIQDSMLDFE], which Kd is on record?
Answer: Its Kd is 1.7 µM.

Target: G3BP1 NTF2 (1-139) F15/33W (human, UniProt Q13283 1-139, F15W | F33W)
Assay: fluorescence polarisation

Sequence of G3BP1 NTF2 (1-139) F15/33W (Q13283 1-139 F15W/F33W): as the sequence (Q13283 1-139 F15W) above, with F33W counted along it

Question: Does {fluorescein-Ahx}-YNFIQDSMLDFE [Caprin1-derived dodecamer reporter peptide F*-YNFIQDSMLDFE] bind?
Answer: Result: binds

Target: G3BP1 NTF2 (1-139) S38A (human, UniProt Q13283 1-139, S38A)
Assay: fluorescence polarisation

Sequence of G3BP1 NTF2 (1-139) S38A (Q13283 1-139 S38A): as the sequence (Q13283 1-139 F15W) above, with W15F, S38A counted along it

Question: Does {fluorescein-Ahx}-YNFIQDSMLDFE [Caprin1-derived dodecamer reporter peptide F*-YNFIQDSMLDFE] bind?
Answer: Result: binds

Target: G3BP1 NTF2 (1-139) F33/124W (human, UniProt Q13283 1-139, F33W | F124W)
Assay: fluorescence polarisation

Sequence of G3BP1 NTF2 (1-139) F33/124W (Q13283 1-139 F33W/F124W): as the sequence (Q13283 1-139 F15W) above, with W15F, F33W, F124W counted along it

Question: Does {fluorescein-Ahx}-YNFIQDSMLDFE [Caprin1-derived dodecamer reporter peptide F*-YNFIQDSMLDFE] bind?
Answer: Result: binds

Target: G3BP1 NTF2 (1-139) S38G (human, UniProt Q13283 1-139, S38G)
Assay: fluorescence polarisation

Sequence of G3BP1 NTF2 (1-139) S38G (Q13283 1-139 S38G): as the sequence (Q13283 1-139 F15W) above, with W15F, S38G counted along it

Question: Does {fluorescein-Ahx}-YNFIQDSMLDFE [Caprin1-derived dodecamer reporter peptide F*-YNFIQDSMLDFE] bind?
Answer: Result: binds

Target: G3BP1 NTF2 (1-139) TripleW (F15W/F33W/F124W) (human, UniProt Q13283 1-139, F15W | F33W | F124W)
Assay: fluorescence polarisation

Sequence of G3BP1 NTF2 (1-139) TripleW (F15W/F33W/F124W) (Q13283 1-139 F15W/F33W/F124W): as the sequence (Q13283 1-139 F15W) above, with F33W, F124W counted along it

Question: Does {fluorescein-Ahx}-YNFIQDSMLDFE [Caprin1-derived dodecamer reporter peptide F*-YNFIQDSMLDFE] bind?
Answer: Result: binds

Target: G3BP1 NTF2 (1-139) S38T (human, UniProt Q13283 1-139, S38T)
Assay: fluorescence polarisation

Sequence of G3BP1 NTF2 (1-139) S38T (Q13283 1-139 S38T): as the sequence (Q13283 1-139 F15W) above, with W15F, S38T counted along it

Question: Does {fluorescein-Ahx}-YNFIQDSMLDFE [Caprin1-derived dodecamer reporter peptide F*-YNFIQDSMLDFE] bind?
Answer: Result: binds

Target: G3BP1 NTF2 (1-139) F15/124W (human, UniProt Q13283 1-139, F15W | F124W)
Assay: fluorescence polarisation

Sequence of G3BP1 NTF2 (1-139) F15/124W (Q13283 1-139 F15W/F124W): as the sequence (Q13283 1-139 F15W) above, with F124W counted along it

Question: Does {fluorescein-Ahx}-YNFIQDSMLDFE [Caprin1-derived dodecamer reporter peptide F*-YNFIQDSMLDFE] bind?
Answer: Result: binds

Target: T1, His-tagged G3BP1 NTF2 (human, UniProt Q13283 1-139)
Assay: peptide or protein array

T1 sequence (Q13283 1-139): as the sequence (Q13283 1-139 F15W) above, with W15F counted along it

Question: Does HSPQYIFGDWSPDEFNQFFV [USP10 array peptide F13W] bind?
Answer: Result: binds

Question: Does HSPQYIVGDFSPDEFNQFFV [USP10 array peptide F10V] bind?
Answer: Result: binds

Question: Does HSPQYIFGDISPDEFNQFFV [USP10 array peptide F13I] bind?
Answer: Result: binds

Question: Does HSPQYIFGDFSPDEFNQFFV [native USP10 array peptide HSPQYIFGDFSPDEFNQFFV] bind?
Answer: Result: binds

Question: Does HSPQYIYGDFSPDEFNQFFV [USP10 array peptide F10Y] bind?
Answer: Result: binds

Question: Does HSPQYIFGDYSPDEFNQFFV [USP10 array peptide F13Y] bind?
Answer: Result: binds

Question: Does HSPQYIFGDVSPDEFNQFFV [USP10 array peptide F13V] bind?
Answer: Result: binds

Question: Does HSPQYIIGDFSPDEFNQFFV [USP10 array peptide F10I] bind?
Answer: Result: binds

Question: Does HSPQYIFADFSPDEFNQFFV [USP10 array peptide G11A] bind?
Answer: Result: binds

Question: Does HSPQYIFGDLSPDEFNQFFV [USP10 array peptide F13L] bind?
Answer: Result: binds

Question: Does HSPQYILGDFSPDEFNQFFV [USP10 array peptide F10L] bind?
Answer: Result: binds

Target: T1, His-tagged G3BP1 NTF2
Assay: peptide or protein array
Remark: another data set of the same source

Question: Does QGPYMFIQDSMLDFENQTLD [Caprin1 array peptide N371M] bind?
Answer: Result: binds

Question: Does QGPYTFIQDSMLDFENQTLD [Caprin1 array peptide N371T] bind?
Answer: Result: binds

Question: Does QGPYLFIQDSMLDFENQTLD [Caprin1 array peptide N371L] bind?
Answer: Result: binds

Question: Does QGPYNFFQDSMLDFENQTLD [Caprin1 array peptide I373F] bind?
Answer: Result: binds

Question: Does QGPYRFIQDSMLDFENQTLD [Caprin1 array peptide N371R] bind?
Answer: Result: binds

Question: Does QGPYEFIQDSMLDFENQTLD [Caprin1 array peptide N371E] bind?
Answer: Result: binds

Question: Does QGPYCFIQDSMLDFENQTLD [Caprin1 array peptide N371C] bind?
Answer: Result: binds

Question: Does QGPYIFIQDSMLDFENQTLD [Caprin1 array peptide N371I] bind?
Answer: Result: binds

Question: Does QGPYKFIQDSMLDFENQTLD [Caprin1 array peptide N371K] bind?
Answer: Result: binds

Question: Does QGPYNFIQDSYLDFENQTLD [Caprin1 array peptide M377Y] bind?
Answer: Result: binds

Question: Does QGPYDFIQDSMLDFENQTLD [Caprin1 array peptide N371D] bind?
Answer: Result: binds

Question: Does QGPYFFIQDSMLDFENQTLD [Caprin1 array peptide N371F] bind?
Answer: Result: binds

Question: Does QGPYNFLQDSMLDFENQTLD [Caprin1 array peptide I373L] bind?
Answer: Result: binds

Question: Does QGPYHFIQDSMLDFENQTLD [Caprin1 array peptide N371H] bind?
Answer: Result: binds

Question: Does QGPYNFIQESMLDFENQTLD [Caprin1 array peptide D375E] bind?
Answer: Result: binds

Question: Does QGPYNFIQDCMLDFENQTLD [Caprin1 array peptide S376C] bind?
Answer: Result: binds

Question: Does QGPYWFIQDSMLDFENQTLD [Caprin1 array peptide N371W] bind?
Answer: Result: binds

Question: Does QGPYNFIQDSFLDFENQTLD [Caprin1 array peptide M377F] bind?
Answer: Result: binds

Question: Does QGPYNFIQDSMLDFENQTLD [native Caprin1 array peptide QGPYNFIQDSMLDFENQTLD] bind?
Answer: Result: binds

Question: Does QGPFNFIQDSMLDFENQTLD [Caprin1 array peptide Y370F] bind?
Answer: Result: binds

Question: Does QGPYSFIQDSMLDFENQTLD [Caprin1 array peptide N371S] bind?
Answer: Result: binds

Question: Does QGPYVFIQDSMLDFENQTLD [Caprin1 array peptide N371V] bind?
Answer: Result: binds

Question: Does QGPYNFIQDSMIDFENQTLD [Caprin1 array peptide L378I] bind?
Answer: Result: binds

Question: Does QGPYQFIQDSMLDFENQTLD [Caprin1 array peptide N371Q] bind?
Answer: Result: binds

Question: Does QGPYYFIQDSMLDFENQTLD [Caprin1 array peptide N371Y] bind?
Answer: Result: binds
